Patent publication US20140044730A1

Columns and labels:
[1] = target: human PCSK9 with a C-terminal myc-myc hexahistidine tag and a D374Y mutation (human) (UniProt Q8NBP7); assay: cell-based or functional assay
[2] = target: human PCSK9 with a C-terminal myc-myc-hexahistidine tag (human) (UniProt Q8NBP7); assay: cell-based or functional assay
[3] = target: recombinant cynomolgus monkey PCSK9 with a C-terminal myc-myc hexahistidine tag (cynomolgus monkey); assay: cell-based or functional assay
[4] = target: human PCSK9 with a C-terminal myc-myc-hexahistidine tag (human) (UniProt Q8NBP7); assay: SPR 25C, purified mAb captured
[5] = target: human PCSK9 with a C-terminal myc-myc-hexahistidine tag (human) (UniProt Q8NBP7); assay: SPR 25C pH 7.4, purified mAb captured
[6] = target: human PCSK9 with a C-terminal myc-myc-hexahistidine tag (human) (UniProt Q8NBP7); assay: SPR 25C pH 6.0, purified mAb captured
[7] = target: human PCSK9 with a C-terminal myc-myc-hexahistidine tag (human) (UniProt Q8NBP7); assay: blocking ELISA, hPCSK9-mmH vs coated hLDLR EGFA-hFc
[8] = target: human PCSK9 with a C-terminal myc-myc-hexahistidine tag (human) (UniProt Q8NBP7); assay: blocking ELISA pH 7.2, 500 pM hPCSK9-mmH vs coated hLDLR EGFA-hFc
[9] = target: human PCSK9 with a C-terminal myc-myc-hexahistidine tag (human) (UniProt Q8NBP7); assay: blocking ELISA pH 5.75, 500 pM hPCSK9-mmH vs coated hLDLR EGFA-hFc
[10] = target: human PCSK9 with a C-terminal myc-myc-hexahistidine tag (human) (UniProt Q8NBP7); assay: SPR (Biacore), 37 °C; antibody captured on anti-human Fc surface, hPCSK9-mmH injected (3.125-50 nM); association at pH 7.4, dissociation at pH 6.0
[11] = target: human PCSK9 with a C-terminal myc-myc-hexahistidine tag (human) (UniProt Q8NBP7); assay: SPR (Biacore), 37 °C; antibody captured on anti-human Fc surface, hPCSK9-mmH injected (3.125-50 nM); association at pH 7.4, dissociation at pH 7.2
[12] = target: human PCSK9 with a C-terminal myc-myc-hexahistidine tag (human) (UniProt Q8NBP7); assay: SPR (Biacore), 37 °C; antibody captured on anti-human Fc surface, hPCSK9-mmH injected (3.125-50 nM); association at pH 7.4, dissociation at pH 7.4
[13] = target: human PCSK9 with a C-terminal myc-myc-hexahistidine tag (human) (UniProt Q8NBP7); assay: SPR (Biacore), 37 °C; antibody captured on anti-human Fc surface, hPCSK9-mmH injected (3.125-50 nM); association at pH 7.4, dissociation at pH 5.75

- IC50, LDL uptake in HepG2 cells, 2 nM hPCSK9-D374Y-mmH [1]: 0.97 nM
- IC50, LDL uptake in HepG2 cells, 50 nM hPCSK9-mmH [2]: 8.9 nM
- IC50, LDL uptake in HepG2 cells, 50 nM MfPCSK9-mmH [3]: 10.4 nM
- KD ratio pH 6.0/pH 7.4 [4]: 0.28
- ka ratio pH 6.0/pH 7.4 [4]: 1.65
- kd ratio pH 6.0/pH 7.4 [4]: 0.47
- t½ ratio pH 6.0/pH 7.4 [4]: 2.15
- Kd [5]: 0.728 nM
- koff [5]: 6.09e-05 s⁻¹
- kon [5]: 83600 M⁻¹ s⁻¹
- t½ [5]: 3.16 h
- Kd [6]: 0.205 nM
- koff [6]: 2.84e-05 s⁻¹
- kon [6]: 138000 M⁻¹ s⁻¹
- t½ [6]: 6.79 h
- IC50 ratio (pH 5.75/pH 7.2) [7]: 1.3
- IC50 [8]: 0.245 nM
- IC50 [9]: 0.331 nM
- t½ (dissociative half-life) [10]: 1.19 h
- t½ (dissociative half-life) [11]: 1.47 h
- t½ (dissociative half-life) [12]: 1.5 h
- t½ (dissociative half-life) [13]: 1.44 h
B1: Comparator 7 (antibody, from another filing, IgG2, V domains shown)
VH: QVQLVQSGAEVKKPGASVKVSCKASGYTLTSYGISWVRQAPGQGLEWMGWVSFYNGNTNYAQKLQGRGTMTTDPSTSTAYMELRSLRSDDTAVYYCARGYGMDVWGQGTTVTVSS
VL: QSALTQPASVSGSPGQSITISCTGTSSDVGGYNSVSWYQQHPGKAPKLMIYEVSNRPSGVSNRFSGSKSGNTASLTISGLQAEDEADYYCNSYTSTSMVFGGGTKLTVLQ
